Laboratory results reported in publication PMC6616311, “Reconstitution of Microtubule Nucleation In Vitro Reveals Novel Roles for Mzt1” (Current Biology, 2019).

B2: Alp4 (untagged) (natural protein, S. pombe, UniProt Q9Y705 1-784, looked up)
chain: MVRSISSVLAKEESENGSPIPALEEGSVYHVSLKSEGVSPFSDRIQLNYLYDGKTFSDPSNLNIHQQEACLINELLNAFMGMEGVFVHLQDMKASSEFETIIMPPSFYILPGFDLGIKDIASEMLEMGSHYLSITAFIESRSHFEYGFVNHALCAALRKFVMDYVVLIMQCENQSRIDPNFSLQTLRLYTLPTSRSLRQVYLILRDLLLSMEKNASSSDDLGLSNIDDLLEQLNEGNDISHVVNATRSKKKVCKGGQVISFLTESLTKYAGDPVARKILTYLLREASRPYTKMLNEWIHLGLVNDPYDEFMIKIHKGITSMQLDEDYTDEYWEKRYVIREDQVPPQLLDLQNKVLFAGKYLNVVLECRKGVNNLASLNAKDDTQNQLLWPSTFDDDNFTLNIMNAYVYANESLLQLLQSSQSLYAHLYSLKHYFFLDQSDFFTTFLDNAQHELRKPAKYISITKLQSQLDLALRQPGTITATDPHKEYVTVEVNQTSLIDWLMHIVSISGLEEGTSSQGNEVWNESITKQADVGNETRNFESEHNRSTQGTSKVGSDKDINGFETMQLCYKVPFPLSLILSRKAIIRYQLLFRYFLLLRHVEMQLENSWVQHSKNSAWRLNSSNAKIEQWKRNSWLLRTRMLSFVQKIIYYTTSEVIETHWGKFMGELENARTVDNLMQEHIDFLDTCLKECMLTNSRLLKVQSKLLNTCAMFASYTSTFTRSLYLLENSEESFDEGRMDKMEEILRRYEDSFSRHLKSLVNACNYFASTETAALLSLVMKLTG
notes: Alp4, S. pombe γ-TuSC protein, homolog of human GCP2; also called homolog of human GCP2; source: High Five insect cells (MultiBac baculovirus), coexpressed with partners; in lysate, and co-purified in complexes

Assays:
Alp6-MBP [1] = target: T1, Alp6-MBP (S. pombe, UniProt Q9USQ2 1-832); assay: pull-down; amylose resin purification via Alp6-MBP from lysates of High Five cells coexpressing Alp6-MBP, Alp4 and Gtb1, with or without Mzt1-6xHis; HB100 buffer (40 mM K-HEPES, 100 mM KCl, 1 mM EGTA, 1 mM MgCl2, 0.1 mM GTP, 1 mM DTT pH 7.5), overnight 4°C, maltose elution, SDS-PAGE; details: partners not purified
T1 construct: Alp6, S. pombe γ-TuSC protein, homolog of human GCP3; also called Alp6 (homolog of human GCP3) with C-terminal MBP-6xHis tag; tagged subunit of γ-TuSC^Alp6-MBP; source: High Five insect cells (MultiBac baculovirus), coexpressed with partners; in lysate, and purified on amylose; not shown: MBP, C-terminal, kept; 6xHis, C-terminal, kept
T1 sequence (looked up): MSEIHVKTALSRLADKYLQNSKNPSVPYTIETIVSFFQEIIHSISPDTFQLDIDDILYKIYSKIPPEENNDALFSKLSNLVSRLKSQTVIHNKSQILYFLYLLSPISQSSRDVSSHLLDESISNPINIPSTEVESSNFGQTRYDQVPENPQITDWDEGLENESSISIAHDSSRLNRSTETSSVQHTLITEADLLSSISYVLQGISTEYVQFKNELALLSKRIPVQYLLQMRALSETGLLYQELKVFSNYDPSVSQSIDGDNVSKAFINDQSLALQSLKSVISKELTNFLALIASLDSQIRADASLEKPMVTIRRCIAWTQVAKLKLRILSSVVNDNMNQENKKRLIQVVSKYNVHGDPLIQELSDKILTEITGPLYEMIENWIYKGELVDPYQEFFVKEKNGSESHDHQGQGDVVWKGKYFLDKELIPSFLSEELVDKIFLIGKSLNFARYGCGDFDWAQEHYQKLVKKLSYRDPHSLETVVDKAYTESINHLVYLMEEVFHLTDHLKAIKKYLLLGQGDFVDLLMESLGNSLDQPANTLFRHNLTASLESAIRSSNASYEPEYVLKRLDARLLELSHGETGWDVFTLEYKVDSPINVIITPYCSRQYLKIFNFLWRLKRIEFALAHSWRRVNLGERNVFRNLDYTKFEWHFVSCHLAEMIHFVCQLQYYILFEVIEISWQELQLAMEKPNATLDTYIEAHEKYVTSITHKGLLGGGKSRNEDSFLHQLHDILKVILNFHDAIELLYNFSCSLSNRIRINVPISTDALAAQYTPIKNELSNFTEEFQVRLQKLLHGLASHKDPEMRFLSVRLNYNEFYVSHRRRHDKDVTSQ

[2] = target: the molecule itself; assay: SEC-MALS; 100 μL of 1.98 mg/mL Mzt1 on Superdex-75 10/300 GL in 100 mM Tris, 50 mM NaCl, pH 7.5, 22°C
Alp6-MBP [3] = target: T1, Alp6-MBP; assay: cross-linking; cross-linking mass spectrometry of purified MGM holocomplex (from coexpression) with EDC/Sulfo-NHS, 1:2:4.4 (w/w/w), 90 min, 18°C, 40 mM K-HEPES, 300 mM NaCl, 1 mM MgCl2 pH 7.5; details: both partners purified
Alp4 (untagged) = target: B2; assay: as above; details: both partners purified
[4] = target: the molecule itself; assay: glycerol density-gradient centrifugation; 10-30% glycerol density gradient in HB100, 55,000 rpm, 4°C, 45 or 80 min; one affinity-purified complex alone, 100 μL at 1 mg/mL; S values against marker proteins

B1: γ-tubulin (Gtb1), untagged (natural protein, S. pombe, UniProt P25295 1-446, looked up)
chain: MGREIITLQAGQCGNQIGSQFWQQLCLEHGIGPDGTLESFATEGVDRKDVFFYQSDDTRYIPRAILIDLEPRVVNNILSDTYGSLYNPENILITKNGGGAGNNWANGYSHAERIFEDIMDMIDREADGSDSLEGFSLLHSIAGGTGSGLGSFLLERLNDRYPKKIIQTYSVFPNSQSVSDVVVQPYNSLLALKRLTLNADSVVVLDNAALAHIAADRLHTQNPTFHQQNQLVSTVMSASTTTLRYPGYMNNDLVSIIASLIPSPRCHFLLTSYTPFTNQQVEEAKAIRKTTVLDVMRRLLLPKNQMVSVNPSKKSCFISILDIIQGEADPADVHKSLLRIRERRYASFIPWGPASIQVALSKKSPYIKTNHRVSGLMLANHTSIASLFKRTLDQYDRLRKRNAFLEQYKKEAIFEDDLNEFDSSRDVVADLINEYEACEDPNYLSL
notes: γ-tubulin Gtb1 of S. pombe; source: High Five insect cells (MultiBac baculovirus), coexpressed with partners; in lysate, and co-purified in complexes
Alp6-MBP [1]
  binding result: binds

## B2
Alp6-MBP [1]
  binding result: binds

B3: Mzt1-6xHis (natural protein, S. pombe, UniProt P0CF96 1-64, looked up)
chain: MSESTKETIEVLYEIGTLLGTELDKTTLSLCISLCENNVHPEAIAQIIREIRMAQEQTVDTEPS
notes: Mzt1 of S. pombe; also called MOZART1 homolog; source: High Five insect cells (MultiBac baculovirus); coexpressed in lysate, co-purified in complexes, or purified alone (Ni2+ IMAC, Superdex 75); not shown: 6xHis, C-terminal, kept
[2]
  stoichiometry N: 2

B4: 6xHis-Mto1[bonsai] (domain or fragment, S. pombe, UniProt O94488 131-549, looked up)
chain: TTDDEQLSPVLTANQGFQSQEQYEEDSYNNYDYTSDPSSPNYISSSLDQLPHLDDEDDLQLTPIKEERNYLHSQDAPTTNALSKKISDILIPASAMKDLKDRKNALAKEFEESQPGSSLTLKEQANVIDNLRKEVFGLKLKCYFLYDQLNKFHDQEVQDIMKQNIDLKTLTMELQRAVAGYEKKISGLESRIKPDQSFNLSTPSPAPSNLITLQSRYSQALSELETTKRAFAALRKEKSKKTNYSVGAYNEDRNVLSNMLDNERREKEALLQELESLRVQLSKKVPMPAKNTDERVIETLQRSNELLRMDISMQNEALLLRKQENDRLVKQVEELTVALNSGKMNAIVEAESSKNELWDSMMVSRMKTQEQSIELTRLYKQLQDIEEDYENKLMRMEQQWREDVDQLQEYVEEITQELQ
notes: Mto1 of S. pombe (CM1-domain protein), amino acids 131-549; lacks residues 1-130 and 550-1,115; also called Mto1(131-549); source: High Five insect cells (MultiBac baculovirus), coexpressed with Mto2; in lysate, and co-purified in complexes; not shown: 6xHis, N-terminal, kept
Alp6-MBP [3]
  binding result: binds
Alp4 (untagged)
  binding result: binds

B5: Mto1/2[bonsai] complex (complex, S. pombe)
chain 1: TTDDEQLSPVLTANQGFQSQEQYEEDSYNNYDYTSDPSSPNYISSSLDQLPHLDDEDDLQLTPIKEERNYLHSQDAPTTNALSKKISDILIPASAMKDLKDRKNALAKEFEESQPGSSLTLKEQANVIDNLRKEVFGLKLKCYFLYDQLNKFHDQEVQDIMKQNIDLKTLTMELQRAVAGYEKKISGLESRIKPDQSFNLSTPSPAPSNLITLQSRYSQALSELETTKRAFAALRKEKSKKTNYSVGAYNEDRNVLSNMLDNERREKEALLQELESLRVQLSKKVPMPAKNTDERVIETLQRSNELLRMDISMQNEALLLRKQENDRLVKQVEELTVALNSGKMNAIVEAESSKNELWDSMMVSRMKTQEQSIELTRLYKQLQDIEEDYENKLMRMEQQWREDVDQLQEYVEEITQELQ
chain 2: MSEHNYQSDREVAEDPFLNYEASANQLSSNSRESTPRGSPWRAGMRSASLMTEPLEDSMYSDNNYLDNGVSFTKDENPLYSPSWPSLADANVNSMKSNNAIQEHKAAKFVSEKSLEKVSTADNNLVLQELENLRERLNQVELQLSERPSSYLGYHNNLSPYRSPNSYPSLLPSTHSPHSPAPLSTMQTALMRLRTYHPSPIILKPVEQAVNHAITLVNTSPSSVVDALCRSLAELCLGLVQEAIDASILSQQESSNSLDLVRHTPPLNYTSSVDSSPQRMASDSYGRPSLHLNDPFPSVDLQSNELSHHNVRTTLFSDDSRFHSKIHTHSTPPSQMYSAASHFRYRSDPSTRHVSNSTNKSSLHPSPTSLRVAHPIIPQRASPASQSFPSLQDTPSP
notes: Mto1 of S. pombe, amino acids 131-549 (Mto1[bonsai]); as m7; Mto2 of S. pombe; as m8; Copy numbers of the two chains in the complex are not measured here; also called 6xHis-Mto1/2[bonsai]; source: High Five insect cells (MultiBac baculovirus); coexpressed in lysate, or purified (ammonium sulfate, Ni2+ Fractogel, Superose 6); not shown: 6xHis, N-terminal, kept
[4]
  binding result: binds
